Experimental data as given in publication PMC8495200.
Values belong to the substance of their own block, whether it stands above or below them.

Legend:
Assay in all cases: native gel or EMSA; Blue Native PAGE, purified recombinant non-tagged proteins in 1 x PBS, 1 mM DTT, 1 mM ATP; 4-16% Bis-Tris gels, cold room, Coomassie staining
[1] = target: UBXD9^331–573, GST tag cleaved (D. discoideum)
[2] = target: UBXD9^384–573, GST tag cleaved (D. discoideum)
[3] = target: UBXD9^261–573, GST tag cleaved (D. discoideum)

- stoichiometry N [1]: 6
Substance: UBXD9^331–573, GST tag cleaved (domain or fragment)

- stoichiometry N [2]: 6
Substance: UBXD9^384–573, GST tag cleaved (domain or fragment)

- stoichiometry N [3]: 6
Substance: UBXD9^261–573, GST tag cleaved (domain or fragment)
